This passage reports Kd results from US20190055316A1 (published 2019).

As a reminder, the Kd is the equilibrium constant for the complex coming apart. Read a high Kd as lower affinity.

The target in assay [1] is 158.3. Nature of the assay: Biacore.
The next assay deals with 2.69 LC2. Kind of assay: Biacore. (In general: SPR reads the build-up and loss of mass on a sensor chip optically.)
The target of assay [2] is 151. Kind of assay: Biacore.
Assay [3] addresses 158.3. Kind of assay: KinExA. In general terms: In KinExA the mixture passes briefly over coated beads that capture the unbound partner.
The target in assay [4] is 151. Nature of the assay: KinExA.

B1: Soluble human MSLN (other)
chain: EVEKTACPSGKKAREIDESLIFYKKWELEACVDAALLATQMDRVNAIPFTYEQLDVLKHKLDELYPQGYPESVIQHLGYLFLKMSPEDIRKWNVTSLETLKALLEVNKGHEMSPQAPRRPLPQVATLIDRFVKGRGQLDKDTLDTLTAFYPGYLCSLSPEELSSVPPSSIWAVRPQDLDTCDPRQLDVLYPKARLAFQNMNGSEYFVKIQSFLGGAPTEDLKALSQQNVSMDLATFMKLRTDAVLPLTVAEVQKLLGPHVEGLKAEERHRPVRDWILRQRQDDLDTLGLGLQGGIPNGYLVLDLSMQEALS
For B1, the results for the Kd with 158.3 [1], in the assay with 2.69 LC2 and with 151 [2] were 2.4 nM, 0.228 nM and 17.4 nM, respectively.

B2: Native hu MSLN (cells) (other)
chain: EVEKTACPSGKKAREIDESLIFYKKWELEACVDAALLATQMDRVNAIPFTYEQLDVLKHKLDELYPQGYPESVIQHLGYLFLKMSPEDIRKWNVTSLETLKALLEVNKGHEMSPQAPRRPLPQVATLIDRFVKGRGQLDKDTLDTLTAFYPGYLCSLSPEELSSVPPSSIWAVRPQDLDTCDPRQLDVLYPKARLAFQNMNGSEYFVKIQSFLGGAPTEDLKALSQQNVSMDLATFMKLRTDAVLPLTVAEVQKLLGPHVEGLKAEERHRPVRDWILRQRQDDLDTLGLGLQGGIPNGYLVLDLSMQEALS
As to B2, the Kd with 158.3 [3] stood at 0.0122 nM; in the assay with 151 [4], 0.03 nM.
